Measurements taken from patent US7078038.

How the values were obtained:
[1] = target: CD4 receptor on the cell surface (UniProt P01730); test: cell-based or functional assay
[2] = target: CXCR4 receptor on the cell surface (UniProt P61073); test: cell-based or functional assay
[3] = target: W338S gp120 fixed to CEM cells CD4+/CXCR4+ (HIV-1 (HXB2 clone of HIV-IIIB)) (UniProt P04578); test: flow cytometry, antibody at 10 µg/ml on gp120 fixed to CEM cells CD4+/CXCR4+
[4] = target: wild gp120 fixed to CEM cells CD4+/CXCR4+ (HIV-1 (HXB2 clone of HIV-IIIB)) (UniProt P04578); test: as above

gp160 envelope with 112 W/F in gp120, expressed on transfected HeLa-Tat cells (from UniProt P04578 33-856)
Percentage of fusion foci [1]: 60%

gp160 envelope with 338 W/S in gp120, expressed on transfected HeLa-Tat cells (from UniProt P04578 33-856)
Percentage of fusion foci [2]: 0%

AcM 17b (antibody)
average fluorescence intensity [3]: 176
average fluorescence intensity [4]: 70.5

112W/S gp120 expressed on the surface of transfected HeLa-Tat cells (gp160 envelope with 112 W/S) (from UniProt P04578 33-856)
Percentage of fusion foci [1]: 0%

AcM 4.8d (antibody)
average fluorescence intensity [3]: 209
average fluorescence intensity [4]: 76.8
